Experimental findings from patent US20250092135A1 (NANJING LEADS BIOLABS, published 2025) are described below.

As usually defined, the Kd is the free concentration of one partner at which half of the binding sites on the other are occupied at equilibrium, for simple one-to-one binding. In general, koff refers to the rate constant with which the complex falls apart. In general, kon refers to the second-order rate constant of association. Usually EC50 stands for the concentration at which the effect is half-maximal.

The target in one assay is T1, Human MUC16-His (human).
T1 construct: The entry includes the C-terminal 6xHis tag; also called membrane-proximal end of the extracellular region of the human MUC16 protein; Human MUC16 protein
T1 chain: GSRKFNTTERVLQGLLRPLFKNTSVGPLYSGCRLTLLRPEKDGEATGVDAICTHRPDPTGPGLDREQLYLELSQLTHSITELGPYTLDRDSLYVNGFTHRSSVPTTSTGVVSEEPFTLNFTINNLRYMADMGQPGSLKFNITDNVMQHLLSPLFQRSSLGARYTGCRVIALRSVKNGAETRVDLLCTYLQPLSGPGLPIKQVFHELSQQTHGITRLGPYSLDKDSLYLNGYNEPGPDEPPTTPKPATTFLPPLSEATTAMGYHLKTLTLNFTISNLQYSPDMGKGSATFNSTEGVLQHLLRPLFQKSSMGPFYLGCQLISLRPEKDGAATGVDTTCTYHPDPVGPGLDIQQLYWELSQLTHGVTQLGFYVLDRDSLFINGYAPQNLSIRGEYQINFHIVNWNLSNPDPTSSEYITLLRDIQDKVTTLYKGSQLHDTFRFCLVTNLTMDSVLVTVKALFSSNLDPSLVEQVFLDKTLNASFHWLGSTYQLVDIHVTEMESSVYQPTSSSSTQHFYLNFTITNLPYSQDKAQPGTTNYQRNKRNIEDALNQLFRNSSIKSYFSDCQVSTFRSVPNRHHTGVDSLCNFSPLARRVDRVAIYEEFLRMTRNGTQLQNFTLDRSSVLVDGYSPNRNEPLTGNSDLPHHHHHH
Kind of assay: BLI (ForteBio Octet RED96), antibody on AHC sensor, 50 nM antigen, 1:1 model. From the text: (§1) The binding affinity of the anti-MUC-16 antibodies for the membrane-proximal end of the extracellular region of the human MUC16 protein (human MUC16-His, Table 26) and the membrane-proximal end of the extracellular region of the rhesus monkey MUC16 protein (rhesus monkey MUC16-His, Table 26) was detected by ForteBio Octet RED96, respectively. According to the manufacturer's instructions, an AHC sensor (ForteBio, Cat #18-5060) was placed in a running buffer (lx PBS, Hyclone, Cat #SH30256.01, containing 0.02% Tween 20, pH 7.0) and pre-equilibrated at room temperature for 10 min. In a 96-well plate, the kinetic assay was performed according to the following steps: a) equilibrating the baseline for 100 s with the running buffer; b) diluting the anti-MUC-16 antibodies with the running buffer to 5 μg/mL, immobilizing for 200 s, and stopping; c) equilibrating the baseline for 300 s with the running buffer; and d) diluting the human or rhesus monkey MUC16 protein with the running buffer to 50 nM, binding for 200 s, and dissociating for 600 s. The experimental data were fitted and calculated using a Fortebio Data Analysis software 1:1 binding model.
(In BLI a coated tip is dipped into the sample, and binding shifts an interference pattern.)

For another assay, the target named is T2, Rhesus monkey MUC16-His (rhesus monkey).
T2 construct: The entry includes the C-terminal 6xHis tag; also called membrane-proximal end of the extracellular region of the rhesus monkey MUC16 protein
T2 chain: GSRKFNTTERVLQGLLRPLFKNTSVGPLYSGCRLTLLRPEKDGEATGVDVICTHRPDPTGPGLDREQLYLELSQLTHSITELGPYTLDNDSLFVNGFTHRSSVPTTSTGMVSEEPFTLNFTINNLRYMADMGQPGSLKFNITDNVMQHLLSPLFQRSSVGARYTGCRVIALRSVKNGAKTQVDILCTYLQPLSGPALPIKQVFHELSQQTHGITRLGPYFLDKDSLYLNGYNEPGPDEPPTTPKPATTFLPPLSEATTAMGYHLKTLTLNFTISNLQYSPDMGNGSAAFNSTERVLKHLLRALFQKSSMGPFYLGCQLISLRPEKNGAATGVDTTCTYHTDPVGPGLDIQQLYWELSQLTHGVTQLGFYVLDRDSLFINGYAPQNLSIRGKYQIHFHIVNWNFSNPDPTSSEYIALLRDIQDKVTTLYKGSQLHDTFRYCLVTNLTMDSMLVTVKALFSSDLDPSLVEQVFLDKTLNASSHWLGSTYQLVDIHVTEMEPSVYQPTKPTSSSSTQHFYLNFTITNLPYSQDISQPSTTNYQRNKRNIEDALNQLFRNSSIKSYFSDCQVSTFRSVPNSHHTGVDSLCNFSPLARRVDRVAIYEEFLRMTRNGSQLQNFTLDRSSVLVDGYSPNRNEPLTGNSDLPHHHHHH
The assay is described as above.
Text: as §1

Assay [1] addresses T3, rhesus monkey MUC16 protein (ECT_TM RhMuc16) on 293T cells (rhesus monkey).
T3 chain: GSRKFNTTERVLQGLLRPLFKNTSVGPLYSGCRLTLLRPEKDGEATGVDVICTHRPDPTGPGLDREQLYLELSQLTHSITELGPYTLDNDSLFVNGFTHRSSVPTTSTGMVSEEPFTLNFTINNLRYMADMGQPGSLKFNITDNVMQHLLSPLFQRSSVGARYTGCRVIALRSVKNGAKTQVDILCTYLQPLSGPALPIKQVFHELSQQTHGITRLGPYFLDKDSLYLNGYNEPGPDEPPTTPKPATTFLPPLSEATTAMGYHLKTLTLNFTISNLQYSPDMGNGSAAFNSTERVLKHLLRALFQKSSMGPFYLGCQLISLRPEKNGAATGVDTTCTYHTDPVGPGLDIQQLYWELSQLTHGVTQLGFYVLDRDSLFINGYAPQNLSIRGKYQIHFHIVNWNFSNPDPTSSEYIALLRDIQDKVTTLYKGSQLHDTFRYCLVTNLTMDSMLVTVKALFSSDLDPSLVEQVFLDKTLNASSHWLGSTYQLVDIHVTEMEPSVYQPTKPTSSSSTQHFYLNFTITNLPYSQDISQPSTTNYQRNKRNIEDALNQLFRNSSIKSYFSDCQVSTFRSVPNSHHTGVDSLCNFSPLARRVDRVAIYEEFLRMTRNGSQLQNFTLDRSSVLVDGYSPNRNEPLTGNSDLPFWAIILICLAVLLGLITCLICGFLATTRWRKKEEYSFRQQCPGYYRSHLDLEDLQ
In words: flow cytometry, 293T/rhesus MUC16 cells, PE anti-human IgG Fc secondary, MFI; EC50 table under the plot, unit from the axis Conc.(nM). The method, then: (§2) The serially diluted anti-human MUC16 antibodies (at an initial concentration of 200 nM, 4-fold dilution, 8 points in total) obtained in the present application were added to the cells, and the cells were incubated at 4° C. for 30 min. The cells were washed twice with PBS, and then fluorescent secondary antibody R-PE-conjugated AffiniPure Goat Anti-Human IgG, Fcγ Fragment Specific (Jackson ImmunoResearch, Cat #109-116-098) was added. The cells were incubated at 4° C. for 30 min. The cells were washed twice with PBS and then resuspended, and finally, fluorescence signals were detected using a BD Accuri C5 (BD Bioscience) flow cytometer.
(In flow cytometry, cells or beads pass a laser one at a time.)

Assay [2] concerns the target T4, human MUC16 protein (ECT_TM huMuc16) on 293T cells (human).
T4 chain: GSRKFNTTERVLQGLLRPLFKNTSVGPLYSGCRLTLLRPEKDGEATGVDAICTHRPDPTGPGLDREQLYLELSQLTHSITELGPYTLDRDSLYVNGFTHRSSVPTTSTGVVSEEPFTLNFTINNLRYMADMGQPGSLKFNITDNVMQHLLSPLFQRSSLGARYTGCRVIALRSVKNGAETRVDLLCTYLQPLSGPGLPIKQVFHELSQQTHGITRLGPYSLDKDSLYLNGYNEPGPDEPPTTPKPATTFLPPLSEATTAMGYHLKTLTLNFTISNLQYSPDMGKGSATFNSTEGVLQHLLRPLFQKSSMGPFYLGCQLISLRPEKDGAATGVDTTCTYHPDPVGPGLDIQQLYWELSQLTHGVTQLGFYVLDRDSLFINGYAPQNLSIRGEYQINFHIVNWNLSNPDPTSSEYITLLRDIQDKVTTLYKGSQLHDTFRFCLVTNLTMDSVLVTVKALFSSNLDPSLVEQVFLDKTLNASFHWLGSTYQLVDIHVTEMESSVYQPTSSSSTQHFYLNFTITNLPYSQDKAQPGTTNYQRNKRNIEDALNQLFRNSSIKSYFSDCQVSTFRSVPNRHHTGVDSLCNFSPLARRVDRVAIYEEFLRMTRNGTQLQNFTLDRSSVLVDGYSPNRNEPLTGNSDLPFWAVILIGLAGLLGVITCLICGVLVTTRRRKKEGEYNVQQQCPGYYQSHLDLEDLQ
In words: flow cytometry, 293T/hMUC16 cells, PE anti-human IgG Fc secondary, MFI; EC50 table under the plot, unit from the axis Conc.(nM). The method, then: as §2

B1: anti-MUC16 antibody 776.1(C33A) (antibody, human IgG1, kappa, L234A L235A, V domains shown)
VH: EVQLQQSGPELVKPGASVKISCKASGYTFTDYNIHWVKQSHGKILEWIGYIYPYNGVSDYNQNFKSKATLIVDNSSNTAYMELRSLTSEDSAVYYCARWDFGSGYYFDYWGQGTTLTVSS
VL: QIVLSQSPAILFASPGETVTMTCRASSSVIYMAWNQQKPGSSPKPWIYGTSTLASGVPTRFSGSGSGTSYSLTISRVEAEDAATYYCQQWSSNPFTFGSGTKLEIKR
Take B1: in the assay with Human MUC16-His, the Kd was determined as 1.36 nM, the koff worked out at 0.000348 s⁻¹ and the on-rate constant (kon) was found to be 255000 M⁻¹ s⁻¹. Further, in the assay with Rhesus monkey MUC16-His, the affinity, expressed as Kd, was 1.2 nM; the koff was 0.000945 s⁻¹; the kon came to 791000 M⁻¹ s⁻¹. Moreover, in assay [1], the EC50 was 11.1 nM. The molecule also displayed an EC50 in assay [2] of 8.72 nM.
